± gives the uncertainty stated by the source.
B1: Far upstream element-binding protein 1, residues 98 to 169; numbered along this chain, Q96AE4 (parent)
chain: RSVMTEEYKVPDGMVGFIIGRGGEQISRIQQESGCKIQIAPDSGGLPERSCMLTGTPESVQSAKRLLDQIVE

Variants of: B1
Test: abundance fitness (aPCA) (normalised: wild type 0, dead -1); higher = more abundant; growth selection in yeast, the domain comes from the species named
Conditions: Homo sapiens

Abundance fitness, by site and new letter:
G34: V -0.256 ± 0.028; W -0.364 ± 0.037; K -0.081 ± 0.04; R -0.071 ± 0.026; A -0.1 ± 0.028; H -0.051 ± 0.052; S -0.15 ± 0.03; T -0.124 ± 0.035; E -0.06 ± 0.029; C -0.095 ± 0.043; F -0.222 ± 0.048; P -0.837 ± 0.062; Y -0.269 ± 0.063; Q -0.086 ± 0.041; L -0.147 ± 0.031; M -0.117 ± 0.04; I -0.316 ± 0.06; D -0.094 ± 0.042
I37: M -0.081 ± 0.039; W -0.933 ± 0.049; S -0.788 ± 0.041; C -0.129 ± 0.042; L -0.087 ± 0.028; P -0.679 ± 0.042; R -1.05 ± 0.04; D -0.873 ± 0.07; K -0.911 ± 0.08; T -0.48 ± 0.041; H -0.775 ± 0.094; V -0.038 ± 0.028; A -0.313 ± 0.03; Q -0.911 ± 0.067; E -0.937 ± 0.055; F -0.25 ± 0.055; Y -0.963 ± 0.11; N -0.848 ± 0.083
I39: Y -0.207 ± 0.047; R -0.369 ± 0.026; N -0.415 ± 0.061; W -0.109 ± 0.03; F 0.038 ± 0.05; T -0.227 ± 0.035; H -0.266 ± 0.06; L -0.081 ± 0.029; A -0.252 ± 0.031; K -0.445 ± 0.043; M -0.026 ± 0.036; D -0.51 ± 0.055; E -0.36 ± 0.036; Q -0.35 ± 0.035; V -0.032 ± 0.029; C -0.109 ± 0.044
I26: D -0.529 ± 0.058; A -0.132 ± 0.032; M -0.084 ± 0.036; Q -0.096 ± 0.035; L 0.023 ± 0.029; C -0.103 ± 0.043; W -0.158 ± 0.03; S -0.239 ± 0.033; P -0.515 ± 0.044; V -0.104 ± 0.029; T -0.092 ± 0.039; H -0.139 ± 0.054; R -0.17 ± 0.025
G44: I -0.064 ± 0.033; P -0.061 ± 0.03; Q -0.023 ± 0.034; M -0.012 ± 0.033; C -0.019 ± 0.036; L -0.05 ± 0.025; T 0.002 ± 0.028; H -0.092 ± 0.035; A -0.013 ± 0.026; N -0.024 ± 0.033; E -0.004 ± 0.031; Y -0.037 ± 0.034; F -0.107 ± 0.035; D -0.017 ± 0.032; S -0.003 ± 0.025; W -0.125 ± 0.033; R -0.015 ± 0.024
D42: Y -0.113 ± 0.045; P 0.004 ± 0.038; M -0.08 ± 0.035; Q -0.054 ± 0.038; L -0.095 ± 0.029; W -0.089 ± 0.032; N -0.031 ± 0.044; E 0.014 ± 0.031; K -0.026 ± 0.036; T -0.053 ± 0.034; S -0.024 ± 0.029; F -0.094 ± 0.052; R -0.027 ± 0.025; C -0.015 ± 0.041; I -0.085 ± 0.048; A -0.041 ± 0.028; H -0.04 ± 0.053
A40: T -0.024 ± 0.038; Y -0.088 ± 0.081; P -0.02 ± 0.036; N -0.103 ± 0.055; S -0.034 ± 0.032; V -0.089 ± 0.029; C -0.023 ± 0.045; L -0.05 ± 0.029; Q -0.045 ± 0.036; R -0.064 ± 0.026; K -0.058 ± 0.038; M -0.032 ± 0.041; F -0.101 ± 0.058; G -0.039 ± 0.025; D -0.039 ± 0.045
L46: M -0.031 ± 0.036; I -0.092 ± 0.049; C -0.026 ± 0.038; N -0.023 ± 0.055; F -0.004 ± 0.052; H -0.011 ± 0.058; P -0.124 ± 0.037; E 0.016 ± 0.034; G -0.01 ± 0.025; D -0.006 ± 0.046; Q -0.001 ± 0.042; K -0.006 ± 0.037
S33: F -0.219 ± 0.054; T -0.034 ± 0.032; L -0.325 ± 0.028; M -0.414 ± 0.036; H -0.308 ± 0.046; Q -0.431 ± 0.037; C -0.158 ± 0.037; P -0.865 ± 0.051; Y -0.435 ± 0.049; I -0.313 ± 0.054; A -0.068 ± 0.027; W -0.59 ± 0.035; D -0.868 ± 0.063; N -0.534 ± 0.059; G -0.522 ± 0.026
K36: D -0.02 ± 0.042; E -0.025 ± 0.031; A -0.018 ± 0.024; N -0.059 ± 0.043; L -0.026 ± 0.027; H -0.046 ± 0.051; C -0.031 ± 0.04; V -0.022 ± 0.027; Q -0.04 ± 0.034; Y -0.149 ± 0.052; T -0.062 ± 0.031; I -0.078 ± 0.056; G -0.058 ± 0.024; S -0.041 ± 0.028; M -0.047 ± 0.039; F -0.044 ± 0.053; P -0.666 ± 0.041; R -0.034 ± 0.024; W -0.129 ± 0.029
S43: W -0.142 ± 0.037; C -0.131 ± 0.04; N -0.043 ± 0.045; Y -0.124 ± 0.043; T -0.037 ± 0.032; K -0.091 ± 0.037; R -0.086 ± 0.027; L -0.098 ± 0.03; G -0.066 ± 0.026; I -0.024 ± 0.044; P -0.234 ± 0.033; M -0.087 ± 0.035; A -0.016 ± 0.03; D -0.042 ± 0.047; V -0.068 ± 0.029
E32: D -0.076 ± 0.044; L -0.092 ± 0.028; N -0.12 ± 0.062; Y -0.235 ± 0.048; F -0.208 ± 0.051; K -0.077 ± 0.04; A -0.071 ± 0.033; P -0.796 ± 0.053; V -0.05 ± 0.029; M -0.067 ± 0.038; C -0.096 ± 0.046; G -0.166 ± 0.026; Q -0.059 ± 0.035
R28: V -0.108 ± 0.028; G -0.093 ± 0.024; Q -0.033 ± 0.038; E -0.058 ± 0.03; I -0.215 ± 0.059; H -0.021 ± 0.057; Y -0.131 ± 0.044; W -0.104 ± 0.032; K -0.028 ± 0.038; C -0.109 ± 0.056; N -0.102 ± 0.048; F -0.168 ± 0.05; S -0.045 ± 0.029; A -0.066 ± 0.028; T -0.068 ± 0.035; M -0.083 ± 0.036; D -0.016 ± 0.041; L -0.071 ± 0.03
C35: P -0.986 ± 0.051; F -1.1 ± 0.07; M -0.847 ± 0.045; V -0.087 ± 0.026; Y -1.09 ± 0.07; T -0.172 ± 0.03; G -0.489 ± 0.025; I -0.261 ± 0.033; A -0.036 ± 0.034; Q -0.936 ± 0.053; N -0.955 ± 0.074; L -0.554 ± 0.027; W -1.19 ± 0.053; S -0.154 ± 0.025; H -0.835 ± 0.059; R -0.935 ± 0.031; E -0.835 ± 0.044; K -0.945 ± 0.051; D -0.81 ± 0.06
G45: K -0.086 ± 0.042; Y -0.095 ± 0.048; I -0.14 ± 0.057; V -0.111 ± 0.029; T -0.074 ± 0.036; R -0.078 ± 0.026; M -0.093 ± 0.041; H -0.163 ± 0.063; N -0.094 ± 0.067; Q -0.046 ± 0.042; W -0.166 ± 0.036; P -0.078 ± 0.037; L -0.115 ± 0.031; C -0.034 ± 0.045; D -0.002 ± 0.036; A -0.046 ± 0.033; E -0.023 ± 0.033; S -0.027 ± 0.03
Q31: W -0.153 ± 0.034; E 0.028 ± 0.035; N -0.013 ± 0.05; G -0.089 ± 0.026; R -0.014 ± 0.024; I -0.053 ± 0.048; H -0.06 ± 0.047; F -0.089 ± 0.047; Y -0.09 ± 0.055; M -0.061 ± 0.04; D 0.034 ± 0.043; L -0.043 ± 0.028; C 0.001 ± 0.048; S -0.025 ± 0.029; A -0.026 ± 0.028; T -0.024 ± 0.035
S27: N -0.042 ± 0.051; P -0.198 ± 0.036; Y -0.07 ± 0.047; D -0.046 ± 0.041; K 0.036 ± 0.037; C -0.042 ± 0.04; V -0.017 ± 0.027; R 0.014 ± 0.024; T -0.003 ± 0.032; H -0.012 ± 0.056; A 0.024 ± 0.027; I -0.055 ± 0.057; Q 0.027 ± 0.04; W -0.057 ± 0.031; M -0.025 ± 0.038; E 0.007 ± 0.033; G -0.016 ± 0.023; L -0.054 ± 0.031
I29: E -0.781 ± 0.04; Y -0.246 ± 0.05; N -0.787 ± 0.09; W -0.26 ± 0.033; M -0.042 ± 0.034; Q -0.915 ± 0.12; H -0.423 ± 0.11; R -0.876 ± 0.038; C -0.179 ± 0.041; D -0.935 ± 0.083; T -0.211 ± 0.034; S -0.682 ± 0.039; F -0.144 ± 0.053; A -0.226 ± 0.03; P -0.906 ± 0.073; V -0.031 ± 0.029; K -0.881 ± 0.065; G -0.943 ± 0.035
P41: Y -0.16 ± 0.051; L -0.155 ± 0.027; E 0.005 ± 0.033; R -0.031 ± 0.023; K -0.04 ± 0.037; N -0.051 ± 0.047; M -0.064 ± 0.039; H -0.124 ± 0.049; F -0.198 ± 0.051; Q -0.031 ± 0.035; S -0.023 ± 0.028; I -0.176 ± 0.048; D 0.009 ± 0.041; C -0.025 ± 0.038; A -0.044 ± 0.028; T -0.016 ± 0.032; V -0.111 ± 0.029
Q25: Y -0.132 ± 0.046; W -0.145 ± 0.028; R -0.016 ± 0.022; V -0.07 ± 0.027; S -0.023 ± 0.028
Q38: H -0.034 ± 0.049; Y -0.138 ± 0.052; K -0.041 ± 0.039; S -0.007 ± 0.03; R -0.032 ± 0.024; D -0.042 ± 0.043; I 0.001 ± 0.054; L -0.036 ± 0.031; C -0.005 ± 0.037; P -0.844 ± 0.045; M -0.038 ± 0.037; W -0.049 ± 0.031; F -0.031 ± 0.057; G -0.09 ± 0.025; E 0.023 ± 0.034; A -0.017 ± 0.029; T -0.027 ± 0.035
